Source: paper PMC9158284, “N-terminally truncated Aβ4-x proteoforms and their relevance for Alzheimer’s pathophysiology” (Translational Neurodegeneration, 2022)
“Also recorded” adds a separate entry of the source.

Experiments:
[1] = Thioflavin T binding assay; type: physicochemical; settings: after 24-h incubation at 37 °C under physiological salt concentrations; 50 mM Tris–HCl pH 8.5; ex 435 / em 490 nm; three independent experiments
Method: Aggregation of the different Aβ homologues was also monitored by Thioflavin T binding, following previously described protocols. Briefly, 6 μl aliquots from each peptide aggregation time point were added to 184 μl of 50 mM Tris–HCl buffer, pH 8.5, and 10 µl of 0.1 mM thioflavin T (Sigma). Fluorescence was recorded for 300 s in an LS-50B spectrometer (Perkin Elmer, Waltham, MA) with a slit width of 10 nm and excitation and emission wavelengths of 435 and 490 nm, respectively.

[2] = Autoradiography after SDS-polyacrylamide gel electrophoresis of [125I]-labeled Aβ preparations; type: physicochemical; settings: [125I]-labeled 24-h incubated preparations, 16.5% SDS–polyacrylamide gel
Method: (§1) One hundred micrograms of either full-length or truncated Aβ species in both monomeric and oligomeric forms were radiolabeled using 1,3,4,6-tetrachloro-3α-6α-diphenylglycoluril pre-coated tubes (Iodogen, ThermoFisher Scientific/Pierce, Waltham, MA) and Na^125I (1 mCi, PerkinElmer, Waltham, MA), following the manufacturer’s specifications. All radiolabeling procedures were carried out for 20 min in a Standalone Radioiodine IH-350 hood (Atlantic Nuclear, Rockland, MA). Following removal of free Iodine using a desalting polyacrylamide column (D-salt, cut off 1.8 kDa, Pierce), radioactivity of labeled Aβ was assessed in a Perkin Elmer 1470 automated gamma counter (Perkin Elmer, Waltham, MA). Under these experimental conditions, [^125I] incorporation rendered specific activities in the range of 3–5 µCi/µg with > 98% TCA precipitable counts. Aggregation status of the [^125I]-labeled Aβ monomeric and oligomeric species was analyzed by autoradiography following 16.5% SDS–polyacrylamide gel electrophoresis and subsequent direct exposure to HyBlot CL film (Denville Scientific Inc., South Plainfield, NJ), as we previously described. If not immediately used for the clearance experiments, [^125I]Aβ oligomeric peptides were stored at -80 °C and used within a week to prevent further oligomerization and minimize radiolysis.

[3] = design: species or system C57BL/6 mice; settings: mouse, in vivo
Method: as §1
C57BL/6 mice (Taconic Biosciences, Hudson, NY) were intracerebrally injected with the different Aβ preparations following institutionally approved IACUC protocols, essentially as previously reported by our laboratory. […] Radioactivity remaining in the whole brain was assessed in the Perkin Elmer 1470 γ-counter.

[4] = after 24-h incubation at 37 °C, 50 μM in 10 mM phosphate buffer pH 7.4, 150 mM NaF; mean of 15 scans
Method: Changes in the secondary structure of the different Aβ peptides induced by the oligomerization procedure were estimated by CD spectroscopy, as previously described [66]. The HFIP-pretreated peptides were solubilized in deionized water as above, followed by further dilution to a final concentration of 50 μM in 10 mM phosphate buffer, pH 7.4, containing 150 mM sodium fluoride. Spectra in the far-ultraviolet (wavelength range: 190–260 nm; band-width 1 nm; intervals 1 nm; scan rate 60 nm/min) were recorded for each peptide immediately after solubilization and following 24-h incubation at 37 °C in a Jasco J-720 spectropolarimeter (Jasco Inc., Easton, MD) using a 1-mm-path quartz cell. For each sample, 15 consecutive spectra were obtained and averaged, the baseline reading was subtracted, and results were expressed in terms of molar ellipticity (deg × cm^2/dmol).

[5] = Electron microscopy after negative staining; type: physicochemical; settings: 24-h incubation/oligomerization
Method: All synthetic homologues were incubated at a concentration of 1 mg/ml in 1,1,1,3,3,3,hexafluoro-isopropanol (HFIP; Sigma Chemical Co., St. Louis, MO) for 4 days, a pretreatment that breaks down β-sheet structures and disrupts hydrophobic forces, leading to monodisperse amyloid subunit preparations [67]. The HFIP-pretreated peptides were lyophilized and subsequently reconstituted to 1 mM in 1% NH4OH followed by further dilution in phosphate-buffered saline (PBS) to a final concentration of 50 µM and immediately used for radioiodination and direct intracerebral injection. […] The resulting oligomers were immediately used for radiolabeling and intracerebral injections.
Peptide oligomerization was also monitored by electron microscopy, as previously described [38, 66, 71]. Five microliters of either monomeric or oligomeric preparations of the different Aβ peptides were placed onto carbon-coated 400 mesh Cu/Rh grids (Ted Pella, Inc., Redding, CA) and stained with 1% uranyl acetate in distilled water (Polysciences, Inc., Warrington, PA). The stained grids were examined in a Philips CM-12 transmission electron microscope and photographed with a Gatan (4 k × 2.7 k) digital camera at the Image Core Facility of the Skirball Institute of Biomedical Medicine, NYU School of Medicine, as described [66, 71, 72].

[6] = mouse, in vivo; cited from earlier work
From the text: In this sense, it is important to emphasize that the cerebral microvasculature, a main player in the regulation of Aβ homeostasis, suffers ...

Substance	Thioflavin T binding (fluorescence) of oligomerized peptides [1]	SDS-resistant oligomeric species of 24-h incubated preparations [2]	Brain clearance, percentage cleared relative to the total injected radioactivity, oligomeric (24-h incubated) preparation [3]	Secondary structure by CD upon oligomerization [4]	Protofibrillar assemblies after the aggregation procedure, length (electron microscopy) [5]	Percentage cleared from brain, oligomeric form [6] [%]
Aβ1-34: Synthetic homologue of amyloid-β C-terminally truncated at Leu34	negligible fluorescence signal	did not oligomerize within the 24-h experimental timeframe	86% ± 6%	maintained the same unordered conformation before and after	did not form protofibrilar elements	
Aβ1-40: Synthetic homologue of full-length amyloid-β 1-40	low-to-intermediate thioflavin T binding activity	dimeric, trimeric and tetrameric assemblies		intermediate mixture of β-sheet and unordered structures		< 40
Aβ1-42: Synthetic homologue of full-length amyloid-β 1-42	highest thioflavin T binding	from tetramers to dodecamers	61% ± 4%	this type of secondary structure became more relevant		
Aβ4-40: Synthetic homologue of Aβ1-40 N-terminally truncated at Phe4	low-to-intermediate thioflavin T binding activity; also recorded: higher thioflavin-binding activity than the full-length counterpart Aβ1-40	from tetramers to dodecamers	46% ± 5%	predominant unstructured random conformations		
